Measurements: publication PMC3634753, “A Study of the Mechanism of the Chaperone-like Function of an scFv of Human Creatine Kinase by Computer Simulation” (PLoS ONE, 2013)

What was measured:
Experiment in all cases: peptide or protein array; 12-mer HCK peptides, each shifted by one residue, synthesized as spots on nitrocellulose membrane; incubated with purified scFv-A4 in MP buffer (30 mM Tris-HCl, pH 7.6, 170 mM NaCl, 6.4 mM KCl, 0.05% Tween 20, 5% sucrose) overnight at 4°C; bound scFv electro-transferred onto PVDF and detected with anti-V5 antibody
Details in all cases: both partners purified
[1] = molecular target: T1, HCK peptide segment Ser129-Lys138 (Homo sapiens, UniProt P06732)
T1 construct: human creatine kinase (HCK), segment Ser129-Lys138 covered by the positive 12-mer spots E3-E13; Each spot held a 12-mer shifted by one residue; also called spots E3-E13; source: synthetic peptide, synthesized on nitrocellulose membrane as spots
T1 chain: SRVRTGRSIK

[2] = molecular target: T2, HCK peptide segment Thr313-Thr322 (Homo sapiens, UniProt P06732)
T2 construct: human creatine kinase (HCK), segment Thr313-Thr322 covered by the positive 12-mer spots K5-K14; Each spot held a 12-mer shifted by one residue; also called spots K5-K14; source: synthetic peptide, synthesized on nitrocellulose membrane as spots
T2 chain: TRLRLQKRGT

[3] = molecular target: T3, HCK peptide segment Asn5-Tyr14 (Homo sapiens, UniProt P06732)
T3 construct: human creatine kinase (HCK), segment Asn5-Tyr14 covered by the positive 12-mer spots A2-A6; Each spot held a 12-mer shifted by one residue; also called spots A2-A6; source: synthetic peptide, synthesized on nitrocellulose membrane as spots
T3 chain: NTHNKFKLNY

[4] = molecular target: T4, HCK peptide segment Lys265-Asn274 (Homo sapiens, UniProt P06732)
T4 construct: human creatine kinase (HCK), segment Lys265-Asn274 covered by the positive 12-mer spots I22-I29; Each spot held a 12-mer shifted by one residue; also called spots I22-I29; source: synthetic peptide, synthesized on nitrocellulose membrane as spots
T4 chain: KKAGHPFMWN

[5] = molecular target: T5, HCK peptide segment Glu248-Leu257 (Homo sapiens, UniProt P06732)
T5 construct: human creatine kinase (HCK), segment Glu248-Leu257 covered by the positive 12-mer spots I3-I12; Each spot held a 12-mer shifted by one residue; also called spots I3-I12; source: synthetic peptide, synthesized on nitrocellulose membrane as spots
T5 chain: EVFRRFCVGL

[6] = molecular target: T6, HCK peptide segment Lys170-Met179 (Homo sapiens, UniProt P06732)
T6 construct: human creatine kinase (HCK), segment Lys170-Met179 covered by the positive 12-mer spots F17-F21; Each spot held a 12-mer shifted by one residue; also called spots F17-F21; source: synthetic peptide, synthesized on nitrocellulose membrane as spots
T6 chain: KGKYYPLKSM

Measured: binding result

B1: scFv-A4 (scFv, V domains shown)
VH: QVQLVQSGAEVKKPGSSVRVSCKASGGTFSSYAISWVRQAPGQGPEWMGGIIPIFGTANYAQKFQGRVTITADESTSTAYMELSSLRSEDTAVYYCAGSSGWSMSAFDIWGQGTMVTVSS
VL: SSELTQPPSVSVAPGKTARITCGGNNIGSKSVHWYQQKPGQAPVLVIYYDSDRPSGIPERFSGSNSGNTATLTISRVEAGDEADYYCQVWDSSSDHVVFGGGTKLTVL
notes: linker segment GLY112-LYS142; without the linker, the light chain is 100% and the heavy chain 93% identical to the Fab of PDB 2DD8; also called anti-human creatine kinase single chain antibody
binds: all assays above
